Earlier results in publication doi:10.1101/2021.06.28.450170.

Tests used:
[1] = target: Cys481 (UniProt position 481, YMANGCLLNYL)
[2] = target: Cys797 (UniProt position 797, LMPFGCLLDYV); test: chemical modification
[3] = target: Cys442 (UniProt position 442, FMEHGCLSDYL)

Bruton's tyrosine kinase (BTK) (Homo sapiens)
pKa [1]: 7.7

Epidermal growth factor receptor (EGFR) kinase (Homo sapiens)
pKa [2]: 5.5

Interleukin-2-inducible T-cell kinase (ITK) (Homo sapiens)
pKa [3]: 8.5
